In patent US9658208B2, “Methods and G proteins for screening and identifying ligands of G protein-coupled receptors” (Fred Hutchinson Cancer Research Center, priority 2011, dated 2017):

Columns and labels:
[1] = target: T1, M2 muscarinic acetylcholine receptor (M2AchR) (Rattus norvegicus, UniProt P10980); experiment: CRE-SEAP reporter gene assay, coupling of Gαs-based chimeric G proteins with M2AchR (transient); assay type: cell-based; conditions: HEK-293 cells; 10 uM acetylcholine
T1 construct: expressed in transfected cells; host or cells: HEK-293
T1 sequence (P10980 1-466): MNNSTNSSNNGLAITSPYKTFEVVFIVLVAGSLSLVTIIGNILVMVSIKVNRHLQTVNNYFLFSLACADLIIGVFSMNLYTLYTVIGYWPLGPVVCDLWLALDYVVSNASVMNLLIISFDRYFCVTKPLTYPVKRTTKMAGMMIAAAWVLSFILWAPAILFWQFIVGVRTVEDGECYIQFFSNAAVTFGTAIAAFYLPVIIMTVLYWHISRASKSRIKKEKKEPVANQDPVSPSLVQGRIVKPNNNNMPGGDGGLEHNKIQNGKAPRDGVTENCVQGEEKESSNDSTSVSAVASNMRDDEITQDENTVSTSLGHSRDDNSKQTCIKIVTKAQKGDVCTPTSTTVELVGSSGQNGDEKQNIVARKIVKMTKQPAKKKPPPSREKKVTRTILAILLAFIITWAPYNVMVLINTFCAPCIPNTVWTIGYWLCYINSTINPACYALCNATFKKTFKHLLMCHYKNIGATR
Protocol: The constructs encoding chimeric G proteins were made by substituting C-terminal amino acids of Gαs (SEQ ID NO: 1) with the corresponding C-terminal amino acid sequences of other Gα subunits. A first set of Gαs-based chimeric G proteins was prepared by designing constructs encoding seven Gαs-Gαi chimeras in which the C-terminal 5, 11, 13, 28, 65, 84, or 131 amino acids of Gαs were substituted with the corresponding C-terminal amino acids from the […]. Briefly, HEK-293 cells were cotransfected with chimera constructs together with the CRE-SEAP reporter gene construct and a cDNA encoding the M2 muscarinic acetylcholine receptor (M2AchR), a GPCR that couples to Gαo but not to Gαs and inhibits cAMP production. The transfected cells were cultured in the presence or absence of acetylcholine and then assayed for SEAP activity.
A series of chimeric constructs were prepared in which the final 13 C-terminal amino acids of the Gαs subunit were substituted with the final 13 C-terminal amino acids from Gαo, Gαz, Gαt, Gαq, or Gα15 subunits. Also tested were the Gαs-Gαi-13 and a chimera containing the last 5 C-terminal amino acids of Gαk (Gαs-Gαk-5 (SEQ ID NO: 2)). These chimeric constructs were tested for coupling with M2AchR. […] The Gαs-Gαo-13 (SEQ ID NO: […]) and Gαs-Gα15-13 (SEQ ID NO: 7) allowed approximately 2-fold increases in SEAP activity.
Chimeric G protein cloning: An insert containing rat Gαs cDNA was cut out using the restriction enzymes SaII and HinDIII, and ligated into pcDNA3.1(−) cut with XhoI and HinDIII. The chimeric G proteins with the desired C-terminal amino acid substitutions were prepared by PCR using Gαs as a template. More specifically, Gαs was PCR amplified between an internal EcoRI site and the stop codon, with a 3′ HinDIII placed immediately after the stop codon. A different 3′ oligonucleotide was used for each Gαs chimera and contained a 39 bp sequence that encoded the substituted amino acids at the C-terminus selected from the donor Gα subunit.
M2AchR GPCR cloning: Rat M2AchR receptor was cloned by PCR from cDNA templates (ATCC) and ligated into pcDNA 3.1(−) for expression in mammalian cells.
CRE-SEAP Reporter Gene Assay: 0.5×10^5 HEK-293 cells (ATCC) were seeded into each well of a 96 well plate 24 hours prior to transfection. cDNAs encoding M2AchR, SEAP reporters (Mercury Pathway Profiling System, BD Biosciences), and G protein chimeras were transfected into HEK-293 cells using lipofectamine reagent (Invitrogen) according to the manufacturer's protocols. […]
(§1) Following transfection, the cells were maintained for 48 hours in 200 ul serum free media containing 10 uM acetylcholine (Sigma). […] Fluorescence was then measured using a CytoFluor 4000 multi well plate reader (Applied Biosystems).

M2AchR = target: T2, M2AchR (Rattus norvegicus, UniProt P10980); experiment: CRE-SEAP reporter gene assay, stably versus transiently expressed chimeric G proteins; assay type: cell-based; conditions: cells transiently expressing the chimera construct, 10 uM acetylcholine
T2 construct: expressed in transfected cells; host or cells: HEK-293 (chimera stably or transiently expressed; M2AchR transiently transfected)
T2 sequence (P10980 1-466): T1 sequence (P10980 1-466)
Protocol: The ligand-induced SEAP activity for cells stably transfected and expressing Gαs-based chimeric G proteins was compared with that of cells transiently expressing Gαs-based chimeric G proteins. Stable expression is achieved by integration of the construct of interest into the target cell's chromosome. Cell lines were prepared that stably expressed Gαs-Gαt-13, Gαs-Gαi-13, and Gαs-Gαo-13 G protein chimeras. […] Therefore, cell lines stably expressing the Gαs-based chimeric G proteins can provide enhanced sensitivity for the screening and identification of GPCR ligands.
Preparation of cells stably expressing G protein chimeras: HEK-293 cells were transfected with each of the G protein chimeras of interest. Following transfection, the cells were split and diluted in media containing 0.7 mg/ml neomycin (Gibco). Cells were grown until clones could be picked. At least 25 clones from each of the stables were picked, and tested for their suitability as sensor cell lines, by transfecting them with CRE-SEAP and cDNA encoding the M2AchR receptor. Those stables that elicited the maximal signal to noise following activation of the GPCRs were chosen and maintained. […]
as §1

B1: Gαs-Gαt-13: Gαs-based chimeric G protein, final 13 C-terminal amino acids substituted with those of Gαt (protein)
chain: MGCLGNSKTEDQRNEEKAQREANKKIEKQLQKDKQVYRATHRLLLLGAGESGKSTIVKQMRILHVNGFNGEGGEEDVPDYASNSDGEKATKVQDIKNNLKEAIETIVAAMSNLVPPVELANPENQFRVDYILSVMNVPNFDFPPEFYEHAKALWEDEGVRACYERSNEYQLIDCAQYFLDKIDVIKQADYVPSDQDLLRCRVLTSGIFETKFQVDKVNFHMFDVGGQRDERRKWIQCFNDVTAIIFVVASSSYNMVIREDNQTNRLQEALNLFKSIWNNRWLRTISVILFLNKQDLLAEKVLAGKSKIEDYFPEFARYTTPEDATPEPGEDPRVTRAKYFIRDEFLRISTASGDGRHYCYPHFTCAVDTENIRRVFNDCRDIIIKENLKDCGLF
modifications: Chimeric protein
notes: Gαs-based chimeric G protein, final 13 C-terminal amino acids substituted with those of Gαt
[1]
  ligand induced increases in SEAP activity mediated by M2AchR (in words): highest responses
M2AchR
  increase in SEAP activity: approximately 10 fold
